Source: patent publication US20030175271A1 (Kyowa Kirin, published 2003)

Target: ^125I-labeled human VEGF (human, UniProt P15692-4 27-191, limits assumed, 125I-labeled)
Test: competition against ^125I-VEGF (4 ng/ml) binding to coated KDR-7N-Fc
Description: Methanol was dispensed in 100 μl portions into wells of a 96-well Immobilon™-P Filtration Plate (manufactured by Millipore) to give hydrophilic nature to the PVDF membrane on the bottom of the plate. […] After washing, PBS containing 1% bovine serum albumin (BSA) was added in 200 μl/well portions and the reaction was carried out at room temperature for 30 minutes to block the remaining active residues.

^125I-labeled human VEGF, sequence (P15692 other isoform, or with tags, fused parts or gaps limits assumed): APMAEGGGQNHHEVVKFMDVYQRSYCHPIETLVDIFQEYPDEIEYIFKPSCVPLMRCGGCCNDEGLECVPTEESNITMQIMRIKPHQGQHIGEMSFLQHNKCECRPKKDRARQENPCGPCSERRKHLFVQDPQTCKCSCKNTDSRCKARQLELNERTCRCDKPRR

binding result: no binding
B1: soluble human VEGF receptor KDR-1N-Fc (Fc fusion)
chain: ASVGLPSVSLDLPRLSIQKDILTIKANTTLQITCRGQRDLDWLWPNNQSGSEQRVEVTECSDGLFCKTLTIPKVIGNDTGAYKCFYRETDLASVIYVYVQDYRS
notes: not shown: linker #1 (6 residues)
